Laboratory results published in IntAct's records for PubMed 19182799.

B1: Mitochondrial intermembrane space import and assembly protein 40 (Saccharomyces cerevisiae), P36046 (parent)
chain: MLRNLVVRNACRNRPSIQVARGLCRHQTRRLMASSPQFGRNSNQEKTAGFIMGILSMAGALYFIAPNRKPLFASRKVESDKTAEEELSSGGEQSPENEDDNNSKSDENGDDNDSKNDETEAGPQLGGDKIGASKVAEDGELVVLAEEDNKSSEDKDTDESKVSTKDDEQSNEDNATANNQKDENISSENSEENTSDKTLDNNAGSSEKKDPEHSDDEKSQQGQSDDKTTTEDNNGEEESSKKTVSDSENSAKQSESSDEEKEELRKQEEKQMGPTEEEVQHEGAYNPDTGEINWDCPCLGGMAHGPCGEEFKSAFSCFVYSEAEPKGIDCVEKFQHMQDCFRKYPEHYAEQLKETSDDEEPQDKVKVNTIESAPNVSSAKENAAKKAEQSDVKKEPLNEESKP
partner: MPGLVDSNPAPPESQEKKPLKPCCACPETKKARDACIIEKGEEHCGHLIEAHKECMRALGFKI
B2: Mitochondrial intermembrane space import and assembly protein 40 (Saccharomyces cerevisiae), P36046 (parent)
chain: B1 chain
partner: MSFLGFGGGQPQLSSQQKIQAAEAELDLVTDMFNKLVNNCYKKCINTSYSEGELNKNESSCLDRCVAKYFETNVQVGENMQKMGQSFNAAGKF

Variants of: B1
Details: with cox17_human COX17, Q14061

| effect of a mutation on the interaction | Variant |
| --- | --- |
| disrupting interaction | MLRNLVVRNACRNRPSIQVARGLCRHQTRRLMASSPQFGRNSNQEKTAGFIMGILSMAGALYFIAPNRKPLFASRKVESDKTAEEELSSGGEQSPENEDDNNSKSDENGDDNDSKNDETEAGPQLGGDKIGASKVAEDGELVVLAEEDNKSSEDKDTDESKVSTKDDEQSNEDNATANNQKDENISSENSEENTSDKTLDNNAGSSEKKDPEHSDDEKSQQGQSDDKTTTEDNNGEEESSKKTVSDSENSAKQSESSDEEKEELRKQEEKQMGPTEEEVQHEGAYNPDTGEINWDSPSLGGMAHGPCGEEFKSAFSCFVYSEAEPKGIDCVEKFQHMQDCFRKYPEHYAEQLKETSDDEEPQDKVKVNTIESAPNVSSAKENAAKKAEQSDVKKEPLNEESKP [C296S;C298S] |
| decreasing interaction | MLRNLVVRNACRNRPSIQVARGLCRHQTRRLMASSPQFGRNSNQEKTAGFIMGILSMAGALYFIAPNRKPLFASRKVESDKTAEEELSSGGEQSPENEDDNNSKSDENGDDNDSKNDETEAGPQLGGDKIGASKVAEDGELVVLAEEDNKSSEDKDTDESKVSTKDDEQSNEDNATANNQKDENISSENSEENTSDKTLDNNAGSSEKKDPEHSDDEKSQQGQSDDKTTTEDNNGEEESSKKTVSDSENSAKQSESSDEEKEELRKQEEKQMGPTEEEVQHEGAYNPDTGEINWDCPSLGGMAHGPCGEEFKSAFSCFVYSEAEPKGIDCVEKFQHMQDCFRKYPEHYAEQLKETSDDEEPQDKVKVNTIESAPNVSSAKENAAKKAEQSDVKKEPLNEESKP [C298S] |

Variants of: B2
Details: with tim10_yeast TIM10, P87108

| effect of a mutation on the interaction | Variant |
| --- | --- |
| decreasing interaction | MLRNLVVRNACRNRPSIQVARGLCRHQTRRLMASSPQFGRNSNQEKTAGFIMGILSMAGALYFIAPNRKPLFASRKVESDKTAEEELSSGGEQSPENEDDNNSKSDENGDDNDSKNDETEAGPQLGGDKIGASKVAEDGELVVLAEEDNKSSEDKDTDESKVSTKDDEQSNEDNATANNQKDENISSENSEENTSDKTLDNNAGSSEKKDPEHSDDEKSQQGQSDDKTTTEDNNGEEESSKKTVSDSENSAKQSESSDEEKEELRKQEEKQMGPTEEEVQHEGAYNPDTGEINWDCPSLGGMAHGPCGEEFKSAFSCFVYSEAEPKGIDCVEKFQHMQDCFRKYPEHYAEQLKETSDDEEPQDKVKVNTIESAPNVSSAKENAAKKAEQSDVKKEPLNEESKP [C298S] |
| disrupting interaction | MLRNLVVRNACRNRPSIQVARGLCRHQTRRLMASSPQFGRNSNQEKTAGFIMGILSMAGALYFIAPNRKPLFASRKVESDKTAEEELSSGGEQSPENEDDNNSKSDENGDDNDSKNDETEAGPQLGGDKIGASKVAEDGELVVLAEEDNKSSEDKDTDESKVSTKDDEQSNEDNATANNQKDENISSENSEENTSDKTLDNNAGSSEKKDPEHSDDEKSQQGQSDDKTTTEDNNGEEESSKKTVSDSENSAKQSESSDEEKEELRKQEEKQMGPTEEEVQHEGAYNPDTGEINWDSPSLGGMAHGPCGEEFKSAFSCFVYSEAEPKGIDCVEKFQHMQDCFRKYPEHYAEQLKETSDDEEPQDKVKVNTIESAPNVSSAKENAAKKAEQSDVKKEPLNEESKP [C296S;C298S] |
